From US20230234997A1, “Compositions and Methods for the Treatment of Synucleinopathies” (SOLA BIOSCIENCES LLC, priority 2020, published 2023)
Residues, ends and D or L forms follow the SMILES beside them. *: point of attachment. Cbz = O=C(OCc1ccccc1)*

How the values were obtained:
Type in all cases: cell-based
[1] = molecular target: T1, mutant (A53T) α-synuclein (Homo sapiens, UniProt P37840, A53T); experiment: Immunoblot of total α-synuclein in lysates of transfected HEK293 cells
T1 construct: expressed in transfected cells; host or cells: HEK293
Protocol: (§1) FIG. 3A: Wild type (WT) α-synuclein (Syn(WT): bars 1-3) or mutant α-synuclein (Syn(A53T): bars 4-6) was expressed alone or with a Flag epitope-tagged fusion protein comprising the J-domain DnaJB1 and a α-synuclein-binding domain (J-SynBP1: bars 2 and 5) or a control fusion protein construct comprising a mutated J-domain (containing a P33Q substitution) and a α-synuclein-binding peptide (J(MT)-SynBP1: bars 3 and 6) in HEK293 cells. Two days later, cells were homogenized in Tris buffer (10 mM Tris, pH7.4, 140 mM NaCl, 1 mM EDTA supplemented with protease inhibitor cocktail). Aggregation of mutant α-synuclein levels were quantified with sandwich ELISA, in which aggregated α-synuclein proteins were captured by coated-Syn-O4 antibody, followed by detection with HRP-conjugated anti-α-synuclein antibody (BioLegend: A15115A). FIG. 3B Lysates were prepared from HEK293 cells transiently transfected with wildtype Syn(WT) (lanes 1-3) or mutant Syn(A53T) (lane 4-6) alone or co-expressed with the fusion protein constructs. After brief sonication, the cell lysate was subjected to SDS-PAGE/immuno blotting with anti-α-synuclein antibody (Ab-2: top panel), Flag antibody (middle panel) or anti-Tubulin antibody (bottom panel).
Cells were transfected with either wildtype (lane 2) or mutant (lanes 3-8) α-synuclein, and also transfected with the JB1-SynBP1 fusion protein (lanes 4-8). […]
(§2) Expression vector plasmids encoding various protein constructs were transfected into HEK293 cells with Lipofectamine 3000 transfection reagent (Thermo Fisher Scientific). Cell lysates were analyzed for expressed proteins using immunoblot assays. […] After brief sonication, the samples were analyzed for expressed proteins using immunoblot assays. […]
(§3) Expressed proteins were detected using a chemiluminescent signal. […]
Expression vector plasmids encoding various protein constructs were transfected into HEK293 cells with Lipofectamine 3000 transfection reagent (Thermo Fisher Scientific). […] After brief sonication, cell lysates were analyzed in ELISA or immunoblotting assay.

[2] = molecular target: T1, mutant (A53T) α-synuclein; experiment: ELISA of aggregated α-synuclein (Syn-O4 capture) in lysates of transfected HEK293 cells
Protocol: Cells were also treated with either Bafilomycin A1, an inhibitor of late phase autophagy (10 nM and 100 nM), or MG132, a proteasome inhibitor (0.1 μM and 1 μM). Aggregated synuclein in cell lysates were determined by ELISA using an anti-aggregated synuclein antibody.
Expression vector plasmids encoding various protein constructs were transfected into HEK293 cells with Lipofectamine 3000 transfection reagent (Thermo Fisher Scientific). One day after transfection, culture medium was replaced with fresh medium containing bafilomycin al (BFA) or MG132, and cells were incubated for additional 48 hours. Cells were lysed in lysis buffer (20 mM Tris, pH 7.4, 150 mM NaCl, 1 mM EDTA, 0.1% NP-40) supplemented with protease inhibitor cocktail (Complete Protease Inhibitor Cocktail; Sigma) and 2 mM PMSF. After brief sonication, cell lysates were analyzed in ELISA or immunoblotting assay.
The aggregation status of expressed α-synuclein was monitored with α-synuclein aggregate-specific antibody Syn-O4 (BioLegend). Syn-O4 is a conformation-specific monoclonal antibody that recognizes specifically α-synuclein aggregates but not the soluble, monomeric form of the protein^58. Microtiter plate wells were coated with Syn-O4 overnight at 4° C., and after coating, the wells were washed three times with PBS, blocked for one hour with PBS containing 1% BSA, and washed again with PBS. […]

wildtype α-synuclein [3] = molecular target: T2, wildtype α-synuclein (Homo sapiens, UniProt P37840); experiment: Immunoblot of total α-synuclein in lysates of transfected HEK293 cells; details: wildtype Syn(WT), lanes 1-3
T2 construct: expressed in transfected cells; host or cells: HEK293
Protocol: as §1, with “FIG. 3B Lysates were prepared from HEK293 cells transiently transfected with wildtype Syn(WT) (lanes 1-3) or mutant Syn(A53T) (lane 4-6) alone or co-expressed with the fusion protein constructs. After brief sonication, the cell lysate was subjected to SDS-PAGE/immuno blotting with anti-α-synuclein antibody (Ab-2: top panel), Flag antibody (middle panel) or anti-Tubulin antibody (bottom panel).” left out
as §2, §3

wildtype α-synuclein [4] = molecular target: T2, wildtype α-synuclein; experiment: ELISA of aggregated α-synuclein (Syn-O4 capture) in lysates of transfected HEK293 cells; details: co-expression with wildtype α-synuclein, ELISA on cell lysates, bars 1-3
Protocol: as §1, with “FIG. 3B Lysates were prepared from HEK293 cells transiently transfected with wildtype Syn(WT) (lanes 1-3) or mutant Syn(A53T) (lane 4-6) alone or co-expressed with the fusion protein constructs. After brief sonication, the cell lysate was subjected to SDS-PAGE/immuno blotting with anti-α-synuclein antibody (Ab-2: top panel), Flag antibody (middle panel) or anti-Tubulin antibody (bottom panel).” left out
as §2
The aggregation status of expressed α-synuclein was monitored with α-synuclein aggregate-specific antibody Syn-O4 (BioLegend). […]

[5] = molecular target: T3, mutant (A53T) α-synuclein phosphorylated at Ser129 (Homo sapiens, UniProt P37840, A53T); experiment: Level of phosphorylated α-synuclein (Ser129) on co-expression of fusion protein constructs; details: Table 13, wildtype alone = 100%, mutant alone = 92.1%
T3 construct: expressed in transfected cells

[6] = HEK293, BFA at either 10 nM or 100 nM
[7] = HEK293, MG132 (0.1 μM and 1 μM)

Molecule: CO/C1=C\C(C)=C\[C@@H](C)[C@@H](O)[C@@H](C)C/C(C)=C/C=C/[C@H](OC)[C@@H]([C@@H](C)[C@@H](O)[C@H](C)[C@@]2(O)C[C@@H](O)[C@H](C)[C@@H](C(C)C)O2)OC1=O [BFA, Bafilomycin A1, reference compound]
- effect of inhibitor on total α-synuclein in cells expressing mutant α-synuclein and construct 1 [1, 6]: restoration of total and aggregated α-synuclein to levels matching cells expressing mutant α-synuclein alone
- effect of inhibitor on aggregated α-synuclein in cells expressing mutant α-synuclein and construct 1 [2, 6]: restoration of total and aggregated α-synuclein to levels matching cells expressing mutant α-synuclein alone

Molecule: CC(C)C[C@@H](C=O)NC(=O)[C@H](CC(C)C)NC(=O)[C@H](CC(C)C)NC(=O)OCc1ccccc1 [MG132, reference compound] (Cbz-Leu-Leu-Leu-aldehyde)
- effect of inhibitor on total level of α-synuclein in cells expressing mutant α-synuclein and construct 1 [1, 7]: little effect
- effect of inhibitor on aggregated level of α-synuclein in cells expressing mutant α-synuclein and construct 1 [2, 7]: little effect

Molecule: Construct 2: Same as construct 1, but containing a P33Q mutation within the J domain (control)
- overall level of α-synuclein (FIG. 3B, Western blot) (wildtype α-synuclein [3]): relatively similar levels
- overall level of α-synuclein (FIG. 3B, Western blot) ([1]; HEK293 cells, mutant Syn(A53T), lanes 4-6): relatively similar levels
- amount of detectable aggregated α-synuclein (FIG. 3A) (wildtype α-synuclein [4]): higher overall aggregation

Molecule: Construct 10: J domain from human DnaJB1 fused to 4XGGGGS linker, in turn, fused on its C-terminus to QBP1
- ability to reduce mutant (A53T) synuclein aggregation (Table 11) ([2]; Mutant (A53T)): potently reduce α-synuclein aggregation

Molecule: Construct 11: J domain from human DnaJB1 fused on its C-terminus to SynBP1 (with flexible GGGGS linker)
- Phosphorylated α-synuclein [5]: 19.1%

Molecule: Construct 12: J domain from human DnaJB1 fused on its C-terminus to SynBP1 (with rigid EAAAK linker)
- Phosphorylated α-synuclein [5]: 23.1%

Molecule: Construct 13: J domain from human DnaJB1 fused on its C-terminus to SynBP1 (no linker)
- Phosphorylated α-synuclein [5]: 4.5%
